Experimental data: the DeepSol protein solubility set

Test: soluble on expression in E. coli; label from the status in PepcDB or PDB records

Row | Sequence | soluble on expression in E. coli
1 | GPGSMSAIVPAAHAREDMGGCAPCRVSSFHPCEGDGAEEKECNASSGADAAAAAEPLDPLRCFSAFDVLRDVLAACTCAPALSRSTEKGADSPSLLPGAPLPSAWRTEQTREALRTLVDLVAADVGVSSARHGQGEAPEEAEIARSRLSVDALLLHLTTEGPNLRAALRRRRRQLLPMPPRDDATTQSEREACDEAHAACEEDEALAALTRCAASVALINRDLGSSARKGRKAVQTAASCVLQTRTALSLLRTSSLVHQPLRAGAGHAAASRSAIAAADVSAYWCSTGCMGLDQALGGGGFRSGWVTEVYGEAGAGKTQLGLQCLLQQAATDVCHAAVALALASGADFTSLAHMATTTGMCGSRSPVVKCMEVFDRDAVEAARCAVVYLVSEDVPTSRLGPLAAAAVGRAVRAVRLHPLVNQLPSGVVKTVWGCVERTCTVPTVLSRLQIRHVASVAEVLRLLEPLPHPQLAQVSRTSSPPNVIPNRAQRPRNSNLVEAVRVLAGTHGRAVVVLDSVAAAVVAGQWDMQGVAQADATVTALSLRLRQAAMTHNWCIVVTNQVRAIPTTARQRQCALAPIKRARSPTTSSTASAPSVTRTVVPALGFSWASAAHCRVFLRKSLSHGVRQLVLRHAPSHPPAQASYLITEHGIEDA | not soluble
2 | MLVGLDIGTSKIVAIVAEVLEDGQLNIVGMGHTPSRGLKRGMVVNIESTVQAIQRALEEAELMADCKIHEVFVGIAGSHIKSVNSHGMVAIKDREVTKMDIDRVIETARAVTIPPDH | not soluble
3 | MYNDEELITVQPEAFKALTPSKKFNETSNKLLDLAYSDDGNNLIVSAEDVVLVYDLRDGSKGKSIECKKYGVNCLEYLDTVKCVHSGPNDTTIRLLHLQKKSYVRYFDGHRMPVNFIRTNPKDREKFLSSSVDGEIRMFDTRTFENYGCLLAGHTPLIAFDPDGILFAVATKSDTIKLFDMRSFDLGPFQSFIITKTDNDEWSDIEFSPCGKFILISTTAGSVKWIDAFDGTLIHSFSQHKNPNVSFF | not soluble
4 | VYAILISDIHVGSKEFCENAFIKFLEWLNGNVETKEEEEIVSRVKYLIIAGDVVDGVGVYPGQYADLTIPDIFDQYEALANLLSHVPKHITMFIAPGNHDAARQAIPQPEFYKEYAKPIYKLKNAVIISNPAVIRLHGRDFLIAHGRGIEDVVGSVPGLTHHKPGLPMVELLKMRHVAPMFGGKVPIAPDPEDLLVIEEVPDVVHMGHVHVYDAVVYRGVQLVNSATWQAQTEFQKMVNIVPTPAKVPVVDIDTAKVVKVLDFSGWC | not soluble
5 | MIRSIFIPPTSITATSRLFYGMRAYSTKLEKASLQKYLHDPVKVTVIPITDKESFIYYKHTDNLFNSQSRILKAEKWIVEKSAKLWRKLKKSPKSYNKKIVSMVQSLLNSTPWSENSLLTIPSESYILKRIKGEKDKTQEIRLTLKDYTVKAEQVDTQPLHVYYPPGISSPDECLRQMKKLYQEGLIYHKKWTLYCLLGLPLTIPLILIPLIPNVPGFYLSYRAYVNIKAYLGAKHLKSLLESSKQNLEFRELLGYTEVYKRGTSSRTQGNQKESKGAPELLLNKKTLPLILDFLEVHELESDLNKVILQESKSQEKNKI | not soluble
6 | MTQHQTLPQTTEGAYHYQVIRRAIELIDQTDQPISLDEIAANMGMSPAHFQRVFSRWVGVSPKRYQQYLTLGHAKTLLSERFSTLAASHAVGLSGSGRLHDLFLRWEAMSPGEFARKGAGLTIYWGWFESPFGPAIVMGTEKGICGMGFAAEMGAETAFEDLAARWPQASYVEDPMMLRPWVLQAFGAKDGALDTTPLFLIGAPFQIKVWEALLSIPTGHVTTYSEIAQAVGAPRAVRAVGTAVGRNPISWIIPCHRALRKSGGLGGYHWGIPMKRAMLAYEAVELETLEHHHHHH | not soluble
7 | MAQHTYDEESVQELLGWAKKMLETKNYPTEKYQVNACTSIIDGKLYLESLISMISKNWENPTFHPTIEQLWEYREKWEGQKE | not soluble
8 | MGSDKIHHHHHHMASISIRCPSCSATEGVVRNGKSTAGHQRYLCSHCRKTWQLQFTYTASQPGTHQKIIDMAMNGVGCRASARIMGVGLYTVLRHLKNSAESVTSRIQPGSDVIVCAEMDEHWGYVGAKSRQRWLFYAYDRIRRTVVAHVFGERTLATLERLLSLLSAFEVVVWMTDGCPLYESRLKGKLHVISKRYTQRIERHNLNLRQHLARLVRKSLSFSKSVELHDKAIGHYLNIKHYQ | not soluble
9 | MRKTLTALFIAAALPTFAMAAPAANDLPPPPMEGGHMMGQHGPRHGGPMKELDLTREQRQQMGKLMGEQMKARHEITQRYLAKLPAAEQKALKDELKASHEKTQKDIRALLTPEQQKKFDELQKKREQRKAEWAEFQQWKADKKSNLEHHHHHH | soluble
10 | MGSDKIHHHHHHMPLLDVRNLTIELDTPHGRVRALEKVSLTLNAGEIHGLVGESGSGRSLLARAILGIPGPNWTITADRMMWDGNNLMAMSSKERRNLMGSDMAMIFQDPSGSLDPAQTVGSQLMQAMPKNPNAYFWQKRRHARLTAQKWLHKVGIKNPRQVMSSYAWELSEGECQKVMIAMAVANQPRLLIADEPTSSMELSTQAQIFRLLSQLNQLQNVSILLISHELETLAQWCDHLSVLYCGQVMESGPTDEVIKQPYHPYTKALLDNMPDYSGSGGHKAIMPTLPGSAPALQHLPIGCRLGPRCPEAQKKCVNQPNLSHIKDRYFACHFPYHGETHNDDPTA | not soluble
11 | MAHHHHHHMKPLAPFVCRLPSRRILRVRGTDAHDFLQGIFTNDLRELHPAGSMYGCFLYFTGRVLCDAHLYQCKQVHEGQASILVDVHERSATELLDHLTEMKMRKKVHIDDVGKELVVLAALEETSADAQRSRDSASGCDARESSVTSLSPETLEERHTECFLDPRNDALFPRPPPPSSSSPPAAVTSPSFCLRKCVVPATWAPPLSSPDSYTTLLYSRGIGEGPDVFKCNKSLPFEGNLDFLKGVSFHKGCYVGQELTHRTHVMLVTRKRTVPLHFGPANVDPPAAGIITDEGAVTKTWPVEVGEPLYSAAREKIGEVTGVCGQVGIGLFRLRYVDKATHTVPGLQLKDGTPVQTHLPDWWPRKDVKKLLQNNS | soluble
